# Patent publication US9060960B2, “Treatment of dissection, aneurysm, and atherosclerosis using granzyme B inhibitors” (The University of British Columbia, priority 2007, dated 2015)
# Several values for one entry are separate records, joined by “and”; a condition that tells them apart may be missing. Identical values can stand only once.
# What was measured:
# [1] = system: aortic elastin (3H-elastin); assay: 3H-elastin cleavage assay (aortic elastin); format: biochemical
# Procedure: (§1) FIG. 6 Granzyme B degrades elastin in vitro. Granzyme B was incubated with ^3H-elastin for 7 days at room temperature. Elastase was incubated with ^3H-elastin for 2 hours. Supernatants containing the soluble elastin cleavage fragments were collected and counted. Data is represented as fold increase in radioactivity over the control (elastin only). (n=2).
# (§2) Tritiated elastin was prepared with the modifications as described in Banda, M. J. and Werb, Z. (1981) Biochem, J. 193: 589-605 and Gordon, S., Werb, Z. and Cohn, Z. A. (1976) in In Vitro Methods in Cell Mediated and Tumor Immunity, eds. Bloom, B. R. and David, J. R. (Academic Press, New York), pages 349-350. 1 mg of skin or aortic elastin was diluted in 1 ml dH2O and pHed to 9.2. 1 mCi NaB3H4 (PerkinElmer™, Waltham Mass.) and 2 mg of […] (Sigma™, St. Louis, Mo.) was added. After 2 hours of incubation, the pH was adjusted to 3.0 and the elastin was incubated for an additional 30 minutes. The elastin was centrifuged for 3 minutes at 5000×g and the pellet was repeatedly washed to remove excess NaB3H4. […] The radioactivity of the soluble, cleaved elastin fragments in the supernatant was counted in Ready Safe Scintillation Fluid (Beckman-Coulter™, Fullerton, Calif.). The radioactivity of the cleaved, soluble elastin fragments was 4.8 times and 2.7 times higher than background for skin and aortic elastin, respectively (FIG. 6).
# [2] = system: skin elastin (3H-elastin); assay: 3H-elastin cleavage assay (skin elastin); format: biochemical
# Procedure: as §1, §2
# vitronectin = assay: Western blot for vitronectin on granzyme B-treated SMCs; format: biochemical, human; details: SMCs treated with granzyme B for 24 hours
# Procedure: (§3) Extracellular proteins from SMC cultures were biotinylated and incubated with granzyme B. The supernatant was collected at 2, 4 and 24 hours after treatment, and the entire insoluble extracellular protein preparation collected at 24 hours. Extracellular proteins were visualized by Western blot for biotin. Western blot for beta-actin confirmed that the extracellular protein preparation was devoid of intercellular proteins. Western blots for fibronectin, phosphorylated FAK (p-FAK), and FAK were also performed on lysates of SMC treated with granzyme B. In the collected insoluble proteins, four protein bands between approximately 50-70 kDa and approximately 236 kDa disappeared 24 hours after treatment with granzyme B and cleavage of fragments approximately 25-39 kDa were evident in the matrix at this same time point. Further, the six proteins and/or cleavage fragments ranging in molecular weight from approximately 29-148 kDa were eluted into the supernatant as early as two hours after granzyme B treatment. […]
# (§4) To identify extracellular proteins that are cleaved by granzyme B, western blots for fibronectin, collagen, and vitronectin on lysates from untreated and granzyme B-treated SMCs were performed. […] In the supernatants of granzyme B-treated SMCs at 24 hours, a fibronectin cleavage product was detected. […]
# [3] = system: human insoluble skin (Sk) elastin; assay: in vitro granzyme B elastin binding assay (skin elastin); details: 50, 100, 300 ng granzyme B; 15 μg skin elastin; PBS, 3 hours, room temperature
# Procedure: (§5) An in vitro granzyme B elastin binding assay was conducted in the following manner. Granzyme B at 50, 100 and 300 ng was incubated with 15 μg of human insoluble skin (Sk) and aortic (Ao) elastin (Elastin Products Company™, Owensville, Mo.) in PBS for three hours at room temperature. The samples were centrifuged at 1000×g at room temperature for three minutes and the insoluble elastin collected in the pellet. The supernatants, which contained unbound granzyme B, were denatured with SDS loading buffer and run on a 10% SDS-PAGE gel. Granzyme B was detected by Western blot. Each gel contained three lanes: a first lane related to a sample containing granzyme B in the absence of elastin; a second lane related to the samples containing granzyme B and human insoluble skin elastin; and a third lane related to the sample containing granzyme B and aortic elastin. […] This phenomenon was dose-dependent and not restricted to the type of elastin used (i.e. skin elastin or aortic elastin).
# fibrillin-1 = molecular target: T1, fibrillin-1 (Homo sapiens, UniProt P35555); assay: Fibrillin cleavage on SMC extracellular matrix by Western blot; format: biochemical; details: Granzyme B (80 nm) on ECM, 24 hours, room temperature
# T1 construct: cells were lysed with NH4OH so that the intact extracellular matrix (ECM) remained on the plate; endogenous in cells; host or cells: human coronary artery smooth muscle cells (decellularised ECM)
# Procedure: Human coronary artery smooth muscle cells were cultured to confluency and serum starved for 48 hours at which time cells were lysed with NH4OH so that the intact extracellular matrix (ECM) remained on the plate. Granzyme B (80 nm) was incubated on the ECM for 24 hours at room temperature. Supernatants (containing cleaved ECM) and ECM still attached to the plate were collected and assessed for fibrillin cleavage by Western blot. The arrows in FIG. 7 indicate fibrillin-1 cleavage fragments.
# [4] = system: human coronary artery smooth muscle cells (SMC) matrix; assay: Cleavage of biotinylated SMC extracellular proteins; format: biochemical; details: supernatant at 2, 4, 24 hours; insoluble matrix at 24 hours
# Procedure: Extracellular proteins from SMC cultures were biotinylated and incubated with granzyme B. The supernatant was collected at 2, 4 and 24 hours after treatment, and the entire insoluble extracellular protein preparation collected at 24 hours. Extracellular proteins were visualized by Western blot for biotin. Western blot for beta-actin confirmed that the extracellular protein preparation was devoid of intercellular proteins. Western blots for fibronectin, phosphorylated FAK (p-FAK), and FAK were also performed on lysates of SMC treated with granzyme B. In the collected insoluble proteins, four protein bands between approximately 50-70 kDa and approximately 236 kDa disappeared 24 hours after treatment with granzyme B and cleavage of fragments approximately 25-39 kDa were evident in the matrix at this same time point. Further, the six proteins and/or cleavage fragments ranging in molecular weight from approximately 29-148 kDa were eluted into the supernatant as early as two hours after granzyme B treatment. To ensure that the SMC extracellular protein preparations used were devoid of intracellular proteins, Western blotting for beta-actin was performed on the collected supernatant and extracellular proteins. Beta-actin was apparent in SMC lysates (positive control) but was absent from matrix and supernatant preparations.
# fibronectin = molecular target: T2, fibronectin (Homo sapiens, UniProt P02751); assay: Western blot for fibronectin on granzyme B-treated SMCs; format: biochemical; details: SMCs treated with granzyme B for 24 hours
# T2 construct: endogenous in cells; host or cells: human coronary artery smooth muscle cells
# Procedure: as §3, §4
# collagen IV = assay: Western blot for collagen on granzyme B-treated SMCs; format: biochemical, human; details: SMCs treated with granzyme B for 24 hours
# Procedure: as §3, §4
# [5] = system: human insoluble aortic (Ao) elastin; assay: in vitro granzyme B elastin binding assay (aortic elastin); details: 50, 100, 300 ng granzyme B; 15 μg aortic elastin; PBS, 3 hours, room temperature
# Procedure: as §5
# [6] = system: apoE-KO and GrB/apoE-DKO mice; assay: ApoE-KO model of angiotensin-II-induced AAA (Examples 8-14); format: in vivo, mouse; details: for survival to 28 days: chronic angII infusion 1000 ng/min/kg
# Excerpt: All animal protocols were approved by the University of British Columbia (UBC) Animal Care Committee. C57B1/6 mice, C57B1/6-ApoE−/− and C57B1/6-GrB−/− mice were obtained from Jackson Laboratories (Bar Harbor, Me.) ([…] et al. 1992. Proc Natl. Acad Sci 89: 4471-4475; HEUSEL et al 1994 Cell 76:977-987). The C57B1/6-ApoE−/− x GrB−/− double knockout (ApoE/GrB-DKO) mice were generated by crossing the C57B1/6-ApoE−/− and C57B1/6-GrB−/− mouse strains. […] The pups were weaned at 3 weeks of age and then maintained on a 12-hour day and night cycle with food and water provided ad libitum.
# ALZET™ osmotic pumps (DURECT Corporation, Cupertino, Calif.) are miniature, implantable pumps commonly used for research in mice and rats. These infusion pumps continuously deliver drugs and other test agents at controlled rates from one day to four weeks without the need for external connections or frequent handling. ALZET™ pumps operate by osmotic displacement. An empty reservoir within the core of the pump is filled with the drug solution to be delivered. Due to the presence of a high concentration of salt in a chamber surrounding the reservoir, water enters the pump through its outer surface. This entry of water increases the volume in the salt chamber, causing compression of the flexible reservoir and delivery of the drug solution into the animal.
# Mice were weighed immediately before calculating doses, and the mean weight of mice per group was used. Since mice on a regular diet gain 0.5 g of weight per week, the drug dose was calculated based on the projected mid weight of the experiment (so mice were slightly overdosed for the first two weeks and under-dosed for the final two weeks). The dose was calculated based on the pump fill volume, mean pumping rate, and the midpoint weight of the mice to achieve a value of 1.44 mg/kg/day, (equivalent to 1000 ng/min/kg). To ensure accurate filling, pumps were weighed before and after filling, and a value of 1 mg equal to 1 μL was used when assessing fill volume. […] All pumps and solutions were worked with under sterile conditions. […] All test tubes were placed in the incubator at 37° C. for 24 hours prior to implantation.
# On day 1, mice were brought into the GEM micro-procedure room Animals were anesthetised with gaseous anaesthetic at a flow rate of 1.5 L per minute of oxygen with 2.5% of isoflurane delivered via a Baines system using a calibrated tabletop anaesthetic machine, administered from a rodent nose cone. Depth of anaesthesia was monitored by toe pinch response and breathing. Eyes were protected using ocular lubricant. The back of the mouse was shaved, and the legs were taped down. The back of the mouse was then sterilized with 70% ethanol, followed by iodine. The mouse was then moved to the surgical table, so that the dissecting microscope could be utilised.
# Under sterile conditions, a lateral incision was made below the scapula, and the skin was blunt dissected from the subcutaneous layer, making a hole large enough to fit the minipump. The minipump was inserted with the flow regulator angled towards the head. Incisions were closed with 2-4 dissolving discontinuous sutures. Isoflurane was then shut off, allowing the mouse to breathe pure oxygen, and a dose of buprenorphine was administered for pain relief After 1 hour, when the mice had recovered from anaesthesia, they were moved back to the animal holding room. The mice were monitored daily for the remainder of the experiment.
# Blood was collected by cardiac puncture following CO2 euthanization.
# [7] = system: C57, apoE-KO and GrB/apoE-DKO mice; assay: Angiotensin-II infusion aortic dissection model (Example 7); format: in vivo, mouse
# Procedure: Aortic dissections were induced with 28 day infusion of 2000 ng/kg/min angiotensin-II dissolved in saline, or placebo, through an ALZET™ osmotic pump (model 1004). The pumps were implanted into the subcutaneous space in the upper dorsal regions through a small incision site at the back of the neck of the anesthetized mouse, and the incision was closed with dissolving sutures. The mice were euthanized by carbon dioxide inhalation followed by cardiac puncture 28-days post implantation. The thoracic cavity and abdominal cavity were then opened, and the circulation perfused with PBS via a cannula placed in the left ventricle, with fluid drained from a severed right atria. Following PBS perfusion, fresh 10% formalin was perfused in the same manner. The heart, kidneys and entire aorta to the iliac bifurcation was then carefully dissected from the animal, and photographed en masse.
# Aortic dissections were defined by blood accumulation between the media and outer aortic wall. Mice that were found dead without any preceding signs of suffering were defined as sudden death.
# T2 sequence (P02751 32-2477): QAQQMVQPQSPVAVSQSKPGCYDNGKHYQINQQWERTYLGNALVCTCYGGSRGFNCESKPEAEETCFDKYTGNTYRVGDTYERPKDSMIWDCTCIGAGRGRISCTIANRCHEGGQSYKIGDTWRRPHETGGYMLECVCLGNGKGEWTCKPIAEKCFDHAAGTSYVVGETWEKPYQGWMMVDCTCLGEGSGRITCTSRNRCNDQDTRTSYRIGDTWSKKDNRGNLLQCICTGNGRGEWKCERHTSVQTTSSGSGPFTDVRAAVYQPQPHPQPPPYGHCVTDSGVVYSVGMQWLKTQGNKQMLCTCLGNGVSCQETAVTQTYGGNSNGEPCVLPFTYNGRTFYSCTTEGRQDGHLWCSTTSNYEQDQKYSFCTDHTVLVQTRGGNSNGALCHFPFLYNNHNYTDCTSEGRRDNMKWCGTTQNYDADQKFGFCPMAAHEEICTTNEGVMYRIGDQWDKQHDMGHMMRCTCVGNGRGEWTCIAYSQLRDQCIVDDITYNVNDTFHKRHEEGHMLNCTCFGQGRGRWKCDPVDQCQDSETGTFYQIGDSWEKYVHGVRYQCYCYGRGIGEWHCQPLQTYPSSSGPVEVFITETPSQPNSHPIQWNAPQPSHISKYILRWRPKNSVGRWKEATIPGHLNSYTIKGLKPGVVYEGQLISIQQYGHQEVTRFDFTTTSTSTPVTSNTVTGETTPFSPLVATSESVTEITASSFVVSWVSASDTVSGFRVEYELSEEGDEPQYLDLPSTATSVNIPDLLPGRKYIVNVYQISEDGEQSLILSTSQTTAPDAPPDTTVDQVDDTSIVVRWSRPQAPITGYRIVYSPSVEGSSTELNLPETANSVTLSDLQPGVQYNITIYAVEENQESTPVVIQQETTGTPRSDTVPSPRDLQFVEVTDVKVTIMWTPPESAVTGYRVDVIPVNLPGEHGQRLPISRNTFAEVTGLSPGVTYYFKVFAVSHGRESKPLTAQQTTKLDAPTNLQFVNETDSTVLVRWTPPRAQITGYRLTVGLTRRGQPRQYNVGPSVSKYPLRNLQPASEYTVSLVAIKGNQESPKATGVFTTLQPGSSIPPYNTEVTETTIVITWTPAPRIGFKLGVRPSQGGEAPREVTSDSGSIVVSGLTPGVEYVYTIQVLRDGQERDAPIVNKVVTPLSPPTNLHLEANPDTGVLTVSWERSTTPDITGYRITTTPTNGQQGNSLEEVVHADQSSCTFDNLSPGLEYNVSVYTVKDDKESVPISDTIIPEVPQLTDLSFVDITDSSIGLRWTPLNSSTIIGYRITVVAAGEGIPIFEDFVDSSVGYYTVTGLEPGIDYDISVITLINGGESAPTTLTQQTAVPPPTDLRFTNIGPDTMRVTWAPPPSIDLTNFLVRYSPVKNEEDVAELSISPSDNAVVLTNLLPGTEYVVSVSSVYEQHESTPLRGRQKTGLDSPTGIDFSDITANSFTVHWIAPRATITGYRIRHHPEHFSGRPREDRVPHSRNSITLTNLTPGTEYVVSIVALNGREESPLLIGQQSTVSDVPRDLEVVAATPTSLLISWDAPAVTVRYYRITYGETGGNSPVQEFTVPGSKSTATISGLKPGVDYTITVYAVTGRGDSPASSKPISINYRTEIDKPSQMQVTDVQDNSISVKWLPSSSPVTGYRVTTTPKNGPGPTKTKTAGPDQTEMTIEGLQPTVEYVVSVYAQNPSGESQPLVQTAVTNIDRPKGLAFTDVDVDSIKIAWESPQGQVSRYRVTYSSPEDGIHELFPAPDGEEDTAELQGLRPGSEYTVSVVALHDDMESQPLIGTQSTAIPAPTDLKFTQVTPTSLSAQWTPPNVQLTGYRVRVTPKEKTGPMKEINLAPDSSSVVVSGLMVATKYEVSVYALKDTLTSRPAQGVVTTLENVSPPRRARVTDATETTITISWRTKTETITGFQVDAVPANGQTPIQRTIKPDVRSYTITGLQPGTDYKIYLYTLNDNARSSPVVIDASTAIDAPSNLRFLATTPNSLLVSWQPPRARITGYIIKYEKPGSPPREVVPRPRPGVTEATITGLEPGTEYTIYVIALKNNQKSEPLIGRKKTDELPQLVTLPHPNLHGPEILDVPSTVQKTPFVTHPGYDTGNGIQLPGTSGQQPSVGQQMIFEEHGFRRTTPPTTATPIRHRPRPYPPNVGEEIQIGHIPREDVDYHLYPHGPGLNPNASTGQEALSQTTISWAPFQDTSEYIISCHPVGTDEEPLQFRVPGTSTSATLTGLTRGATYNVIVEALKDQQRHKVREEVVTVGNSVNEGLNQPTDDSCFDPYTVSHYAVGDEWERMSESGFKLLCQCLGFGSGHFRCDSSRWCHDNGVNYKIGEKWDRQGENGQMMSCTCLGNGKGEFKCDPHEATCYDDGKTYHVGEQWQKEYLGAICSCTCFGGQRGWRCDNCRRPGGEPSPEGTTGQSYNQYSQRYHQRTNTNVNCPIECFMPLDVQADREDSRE
substance,measurement,setting,value
elastase,radioactivity increase over background,"[1]; aortic elastin, 25 μg elastase, 2 hours, positive control",7.7 fold
same,radioactivity increase over background,"[2]; skin elastin, 25 μg elastase, 2 hours, positive control",14.9 fold
"granzyme B: serine protease; the patent's target enzyme, tested for binding and cleavage of extracellular matrix proteins",cleavage of vitronectin,vitronectin,no cleavage
same,unbound granzyme B band in supernatant (Western blot) versus sample without elastin,[3],dramatically less pronounced
same,fibrillin-1 cleavage (Western blot),fibrillin-1,cleaves fibrillin-1
same,cleavage of extracellular proteins (Western blot for biotin),[4],induced a cleavage of a number of extracellular proteins
same,fibronectin in SMC lysates (Western blot),fibronectin,reduction in the total amount of fibronectin
same,cleavage of collagen IV,collagen IV,no cleavage
same,unbound granzyme B band in supernatant (Western blot),[5],No band appeared
same,"radioactivity of the cleaved, soluble elastin fragments","[1]; aortic 3H-elastin 0.15 mg, granzyme B 0.75 μg added 5 times, room temperature, 7 days",2.7 times higher than background
same,"radioactivity of the cleaved, soluble elastin fragments","[2]; skin 3H-elastin 0.15 mg, granzyme B 0.75 μg added 5 times, room temperature, 7 days",4.8 times higher than background
"angII: angiotensin II from Sigma, infused by osmotic minipump to induce aneurysm and dissection in mice (DRVYIHPF; Angiotensin-2; UniProt P01019 25-32, looked up)",medial thickness of thoracic and abdominal aortas versus saline,"[6]; 28 days, significant only for apoE-KO thoracic samples (p<0.05)",trend for medial thickness to increase
same,survival to 28 days,[6]; GrB/apoE-DKO mice (n=15),86.67%
same,Weight change,[6]; GrB/apoE-DKO mice surviving to 28 days,-0.3 g
same,n at 28 days,"[6]; GrB/apoE-DKO mice, n at 0 days 15",13
same,mice with small abdominal aortic aneurysm (AAA),"[6]; GrB/apoE-DKO surviving mice, day 28",30%
same,survival to 28 days,[6]; apoE-KO mice (n=16),56.25% and 53%
same,Weight change,[6]; apoE-KO mice surviving to 28 days,1.0 g
same,abdominal aortic lumen area versus saline,"[6]; apoE-KO mice, 28 days, one-way ANOVA/Dunn's, p<0.05",statistically significant increase
same,n at 28 days,"[6]; apoE-KO mice, n at 0 days 16",9
same,gross pathological outcome,"[6]; apoE-KO surviving mice, day 28",developed aortic dissections
same,percent aortic root lumen covered by plaque,"[6]; either genotype, angII versus saline, 28 days, p>0.05",No significant difference
same,sudden death before the 28-day time point,"[7]; apoE-KO mice, 2000 ng/kg/min infusion, four of eight",50%
same,mice that developed aortic dissections or succumbed to sudden death,"[7]; apoE-KO mice, 2000 ng/kg/min, 28 day infusion, seven of eight",87.5%
same,aortic dissections,"[7]; wildtype and GrB/apoE-DKO mice, 2000 ng/kg/min, 28 day infusion",none developed aortic dissections
same,sudden death,"[7]; wildtype mice, 2000 ng/kg/min, 28 day infusion",zero of six
